Assay results from paper PMC10620681, “Concentration and time-dependent amyloidogenic characteristics of intrinsically disordered N-terminal region of Saccharomyces cerevisiae Stm1” (Frontiers in Microbiology, 2023).

Biological target: the molecule itself
Test: thioflavin-T fluorescence (emission spectra and kinetics); 20 uM Th-T with 1-400 uM Stm1_N 1-113; 10 mM sodium phosphate with 10 or 150 mM NaCl, pH 7.4, 25 °C; emission at 0 h, kinetics until 72 h; signal from 50 uM onwards

B1: Stm1 N-terminal region (Stm1_N^1-113) of Saccharomyces cerevisiae Stm1 (domain or fragment, UniProt P39015 1-113, looked up)
chain: MSNPFDLLGNDVEDADVVVLPPKEIVKSNTSSKKADVPPPSADPSKARKNRPRPSGNEGAIRDKTAGRRNNRSKDVTDSATTKKSNTRRATDRHSRTGKTDTKKKVNQGWGDD
notes: Stm1, Saccharomyces cerevisiae (S288c), stm1 gene YLR150W, residues 1-113 of the 273 amino acids long protein; the insert is 342 nucleotides with the termination codon; Order in the construct: N-terminal His6-tag, GB1 solubility tag, TEV protease cleavage site, Stm1_N 1-113 (vector pDZ1, a modified pET-21a); A few residues from the TEV site and the NdeI site may be left at the N-terminus after …
B1: binds.
